The source of these data is patent publication US20110020786A1, “PEPTIDE DENDRIMERS: AFFINITY REAGENTS FOR BINDING NOROVIRUSES” (BAYLOR COLLEGE OF MEDICINE, priority 2007, published 2011).

Ends that are not written are not given here.

The target in this assay is NoVLPs (Norovirus-like particles) (so in the source). Put plainly: SPR (BIAcore), NoVLPs immobilized, dendrimer injected at 8-240 µM, steady-state fit of the equilibrium average response.

For RHFQTHTVPLSL (also: octovalent MAP dendrimer, eight copies on branching lysine core) […8 (the octovalent dendrimer of SEQ ID NO: 1)], the Kd is 117 µM.
